Reference: the supplement of paper PMC10567573

B1: GFOD1 (parent)
chain: EEAEELAKEMSVPFYTSRIDEVLL

Variants of: B1
Assay: protein stability index of a GFP-peptide fusion (GPS, HEK-293T) (PSI 1-6); higher = more stable
Settings: c terminus: a fixed tail appended
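Further: lentivirally expressed fusions sorted by FACS into six bins by GFP to DsRed ratio, PSI derived from sequencing read proportions per bin multiplied by bin number.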

With EEAEELAKEMSVPFYTSRIDECLL [V22C] as the variant, how does the protein stability index read?
Its protein stability index is 3.7.

Which protein stability index does the source give for EEAEELAKEMSVPFYTSRIDEELL [V22E] here?
Its protein stability index is 5.12.

With EEAEELAKEMSVPFYTSRIDEYLL [V22Y] as the variant, how does the protein stability index read?
The protein stability index was 3.78.

For EEAEELAKEMSVPFYTSRIDEWLL [V22W], which protein stability index is on record?
The protein stability index was 3.62.

With EEAEELAKEMSVPFYTSRIDEMLL [V22M] as the variant, how does the protein stability index read?
The protein stability index was 4.29.

For EEAEELAKEMSVPFYTSRIDERLL [V22R], which protein stability index is on record?
The protein stability index was 4.26.

With EEAEELAKEMSVPFYTSRIDEALL [V22A] as the variant, how does the protein stability index read?
Its protein stability index is 4.53.

For EEAEELAKEMSVPFYTSRIDENLL [V22N], which protein stability index is on record?
Its protein stability index is 4.21.

For EEAEELAKEMSVPFYTSRLDEVLL [I19L], which protein stability index is on record?
The protein stability index was 3.69.

With EEAEELAKEMSVPFYTSRFDEVLL [I19F] as the variant, how does the protein stability index read?
The protein stability index was 3.01.

Which protein stability index does the source give for EEAEELAKEMSVPFYTSRDDEVLL [I19D] here?
The protein stability index was 5.04.

Which protein stability index does the source give for EEAEELAKEMSVPFYTSRKDEVLL [I19K] here?
Its protein stability index is 4.41.

Which protein stability index does the source give for EEAEELAKEMSVPFYTSREDEVLL [I19E] here?
The protein stability index was 5.1.

With EEAEELAKEMSVPFYTSRHDEVLL [I19H] as the variant, how does the protein stability index read?
The protein stability index was 4.85.

With EEAEELAKEMSVPFYTSRPDEVLL [I19P] as the variant, how does the protein stability index read?
The protein stability index was 4.48.

With EEAEELAKEMSVPFYTSRNDEVLL [I19N] as the variant, how does the protein stability index read?
The protein stability index was 5.

For EEAEELAKEMSVPFYTSRRDEVLL [I19R], which protein stability index is on record?
Its protein stability index is 4.57.

For EEAEELAKEMSVPFYTSRYDEVLL [I19Y], which protein stability index is on record?
The protein stability index was 4.64.

For EEAEELAKEMSVPFYTSRADEVLL [I19A], which protein stability index is on record?
The protein stability index was 4.54.

For EEAEELAKEMSVPFYTSRVDEVLL [I19V], which protein stability index is on record?
The protein stability index was 4.31.

For EEAEELAKEMSVPFYTSRGDEVLL [I19G], which protein stability index is on record?
The protein stability index was 4.48.

With EEAEELAKEMSVPFYTSRTDEVLL [I19T] as the variant, how does the protein stability index read?
The protein stability index was 4.11.

Which protein stability index does the source give for EEAEELAKEMSVPFYTSRCDEVLL [I19C] here?
The protein stability index was 4.

With EEAEELAKEMSVPFYTSRMDEVLL [I19M] as the variant, how does the protein stability index read?
The protein stability index was 3.2.

With EEAEELAKEMSVPFYTSRQDEVLL [I19Q] as the variant, how does the protein stability index read?
Its protein stability index is 4.93.

Which protein stability index does the source give for EEAEELAKEMSVPFYTSRSDEVLL [I19S] here?
The protein stability index was 4.75.

For EEAEELAKEMSVPFYTSRIDEVEL [L23E], which protein stability index is on record?
The protein stability index was 5.13.

With EEAEELAKEMSVPFYTSRIDEVIL [L23I] as the variant, how does the protein stability index read?
Its protein stability index is 3.66.

Which protein stability index does the source give for EEAEELAKEMSVPFYTSRIDEVGL [L23G] here?
The protein stability index was 3.66.

For EEAEELAKEMSVPFYTSRIDEVQL [L23Q], which protein stability index is on record?
The protein stability index was 4.72.

With EEAEELAKEMSVPFYTSRIDEVRL [L23R] as the variant, how does the protein stability index read?
Its protein stability index is 4.31.

For EEAEELAKEMSVPFYTSRIDEVDL [L23D], which protein stability index is on record?
The protein stability index was 5.11.

Which protein stability index does the source give for EEAEELAKEMSVPFYTSRIDEVYL [L23Y] here?
The protein stability index was 3.42.

With EEAEELAKEMSVPFYTSRIDEVHL [L23H] as the variant, how does the protein stability index read?
Its protein stability index is 3.9.

With EEAEELAKEMSVPFYTSRIDEVVL [L23V] as the variant, how does the protein stability index read?
The protein stability index was 4.26.

With EEAEELAKEMSVPFYTSRIDEVTL [L23T] as the variant, how does the protein stability index read?
Its protein stability index is 3.87.

Which protein stability index does the source give for EEAEELAKEMSVPFYTSRIDEVNL [L23N] here?
The protein stability index was 4.21.

For EEAEELAKEMSVPFYTSRIDEVWL [L23W], which protein stability index is on record?
Its protein stability index is 3.02.

For EEAEELAKEMSVPFYTSRIDEVFL [L23F], which protein stability index is on record?
Its protein stability index is 2.98.

Which protein stability index does the source give for EEAEELAKEMSVPFYTSRIDEVSL [L23S] here?
The protein stability index was 4.54.

Which protein stability index does the source give for EEAEELAKEMSVPFYTSRIDEVPL [L23P] here?
The protein stability index was 4.57.

With EEAEELAKEMSVPFYTSRIGEVLL [D20G] as the variant, how does the protein stability index read?
The protein stability index was 2.42.

Which protein stability index does the source give for EEAEELAKEMSVPFYTSRILEVLL [D20L] here?
Its protein stability index is 2.07.

With EEAEELAKEMSVPFYTSRIFEVLL [D20F] as the variant, how does the protein stability index read?
The protein stability index was 2.

For EEAEELAKEMSVPFYTSRIREVLL [D20R], which protein stability index is on record?
Its protein stability index is 3.04.

With EEAEELAKEMSVPFYTSRIYEVLL [D20Y] as the variant, how does the protein stability index read?
Its protein stability index is 2.47.

Which protein stability index does the source give for EEAEELAKEMSVPFYTSRICEVLL [D20C] here?
The protein stability index was 2.46.

Which protein stability index does the source give for EEAEELAKEMSVPFYTSRIPEVLL [D20P] here?
Its protein stability index is 3.55.

Which protein stability index does the source give for EEAEELAKEMSVPFYTSRIQEVLL [D20Q] here?
Its protein stability index is 3.79.

With EEAEELAKEMSVPFYTSRIWEVLL [D20W] as the variant, how does the protein stability index read?
The protein stability index was 2.59.

For EEAEELAKEMSVPFYTSRIVEVLL [D20V], which protein stability index is on record?
Its protein stability index is 2.08.

With EEAEELAKEMSVPFYTSRINEVLL [D20N] as the variant, how does the protein stability index read?
The protein stability index was 3.29.

With EEAEELAKEMSVPFYTSRIKEVLL [D20K] as the variant, how does the protein stability index read?
Its protein stability index is 2.78.

For EEAEELAKEMSVPFYTSRIEEVLL [D20E], which protein stability index is on record?
Its protein stability index is 3.91.

For EEAEELAKEMSVPFYTSRIMEVLL [D20M], which protein stability index is on record?
Its protein stability index is 2.33.

Which protein stability index does the source give for EEAEELAKEMSVPFYTSRIHEVLL [D20H] here?
The protein stability index was 2.73.

For EEAEELAKEMSVPFYTSRIIEVLL [D20I], which protein stability index is on record?
Its protein stability index is 1.9.

With EEAEELAKEMSVPFYTSRIAEVLL [D20A] as the variant, how does the protein stability index read?
Its protein stability index is 2.74.

With EEAEELAKEMSVPFYTSRITEVLL [D20T] as the variant, how does the protein stability index read?
The protein stability index was 2.66.

For EEAEELAKEMSVPDYTSRIDEVLL [F14D], which protein stability index is on record?
The protein stability index was 4.9.

With EEAEELAKEMSVPPYTSRIDEVLL [F14P] as the variant, how does the protein stability index read?
Its protein stability index is 4.85.

With EEAEELAKEMSVPLYTSRIDEVLL [F14L] as the variant, how does the protein stability index read?
Its protein stability index is 3.79.

With EEAEELAKEMSVPNYTSRIDEVLL [F14N] as the variant, how does the protein stability index read?
The protein stability index was 4.68.

For EEAEELAKEMSVPSYTSRIDEVLL [F14S], which protein stability index is on record?
The protein stability index was 4.37.

For EEAEELAKEMSVPQYTSRIDEVLL [F14Q], which protein stability index is on record?
The protein stability index was 5.

Which protein stability index does the source give for EEAEELAKEMSVPRYTSRIDEVLL [F14R] here?
Its protein stability index is 4.22.

Which protein stability index does the source give for EEAEELAKEMSVPIYTSRIDEVLL [F14I] here?
Its protein stability index is 4.05.

Which protein stability index does the source give for EEAEELAKEMSVPEYTSRIDEVLL [F14E] here?
Its protein stability index is 4.4.

Which protein stability index does the source give for EEAEELAKEMSVPVYTSRIDEVLL [F14V] here?
The protein stability index was 3.86.

For EEAEELAKEMSVPGYTSRIDEVLL [F14G], which protein stability index is on record?
Its protein stability index is 3.4.

Which protein stability index does the source give for EEAEELAKEMSVPAYTSRIDEVLL [F14A] here?
The protein stability index was 4.46.

Which protein stability index does the source give for EEAEELAKEMSVPKYTSRIDEVLL [F14K] here?
Its protein stability index is 4.2.

For EEAEELAKEMSVPHYTSRIDEVLL [F14H], which protein stability index is on record?
Its protein stability index is 4.2.

Which protein stability index does the source give for EEAEELAKEMSVPMYTSRIDEVLL [F14M] here?
Its protein stability index is 3.83.

With EEAEELAKEMSVPWYTSRIDEVLL [F14W] as the variant, how does the protein stability index read?
The protein stability index was 3.66.

For EEAEELAKEMSVPTYTSRIDEVLL [F14T], which protein stability index is on record?
Its protein stability index is 4.51.

Which protein stability index does the source give for EEAEELAKEMSVPFYKSRIDEVLL [T16K] here?
The protein stability index was 3.7.

Which protein stability index does the source give for EEAEELAKEMSVPFYNSRIDEVLL [T16N] here?
The protein stability index was 4.17.

For EEAEELAKEMSVPFYMSRIDEVLL [T16M], which protein stability index is on record?
Its protein stability index is 3.03.

With EEAEELAKEMSVPFYSSRIDEVLL [T16S] as the variant, how does the protein stability index read?
The protein stability index was 3.27.

Which protein stability index does the source give for EEAEELAKEMSVPFYASRIDEVLL [T16A] here?
The protein stability index was 4.

With EEAEELAKEMSVPFYRSRIDEVLL [T16R] as the variant, how does the protein stability index read?
Its protein stability index is 3.27.

For EEAEELAKEMSVPFYISRIDEVLL [T16I], which protein stability index is on record?
The protein stability index was 3.08.

For EEAEELAKEMSVPFYWSRIDEVLL [T16W], which protein stability index is on record?
The protein stability index was 2.32.

With EEAEELAKEMSVPFYYSRIDEVLL [T16Y] as the variant, how does the protein stability index read?
The protein stability index was 2.27.

For EEAEELAKEMSVPFYHSRIDEVLL [T16H], which protein stability index is on record?
The protein stability index was 3.93.

With EEAEELAKEMSVPFYFSRIDEVLL [T16F] as the variant, how does the protein stability index read?
Its protein stability index is 2.33.

With EEAEELAKEMSVPFYLSRIDEVLL [T16L] as the variant, how does the protein stability index read?
Its protein stability index is 2.75.

With EEAEELAKEMSVPFYPSRIDEVLL [T16P] as the variant, how does the protein stability index read?
Its protein stability index is 3.65.

With EEAEELAKEMSVPFYVSRIDEVLL [T16V] as the variant, how does the protein stability index read?
The protein stability index was 3.45.

With EEAEELAKEMSVPFYCSRIDEVLL [T16C] as the variant, how does the protein stability index read?
The protein stability index was 3.81.

For EEAEELAKEMSVPFYQSRIDEVLL [T16Q], which protein stability index is on record?
The protein stability index was 4.17.

For EEAEELAKEMSVPFYDSRIDEVLL [T16D], which protein stability index is on record?
Its protein stability index is 4.33.

Which protein stability index does the source give for EEAEELAKEMSVPFYGSRIDEVLL [T16G] here?
The protein stability index was 3.78.
